Test results taken from the DeepSol protein solubility set.

Assay: soluble on expression in E. coli; label from the status in PepcDB or PDB records

Sequence	soluble on expression in E. coli
MANKETDILIIGGGLTGASLSLALQGLGFSVTLVESRPYSDKVNPDFDARSLALSPASQRILAMLGVWEILKEYTTPIHMIHVSDQHRFGASRLHGEKNSPLGYVVEMQYINRALSILINKEHLLTPAALKSIDFNNSTATVAHGDDMISIRAQLIVAADGTESMTRYLCNLPVKIKDYAQDAIVANVGLIKPHGNRAFERFTPNGPLALLPMMNDKMSLVWASKPEEAKRLVMLNDDDFLRELQTAFGYRLGRFGKVGKRYSYPLKQVLMPQQTKWPVVFVGNAAHTLHPVAGQGFNLGLRDIAALAQCISQKGLNPQMLEHYLQLRAHDQQMITWLTDGLIHLFTSRLPGMGVARNLGLLALDNIPALKNLLARYARGFGGITPDLVCEIALSAGEFQLEHHHHHH	soluble
MEMAAAVRKCATFIEEKIGKHIDVTTMAYNRLMNHIRHMVSRAATGEKLKVDLNQFIEKNYPESFALAGDICKELGKDLNHEFLDNETGYLAIHIEQIKCDEMVSE	not soluble
MGHHHHHHSHMLKKMGEAVARVARKVNETVESGSDTLDLAECKLVSFPIGIYKVLRNVSGQIHLITLANNELKSLTSKFMTTFSQLRDVPVEKLAAMPALRSINLRFNPLNAEVRVIAPPLIKFDMLMSPEGARAPLP	not soluble
MKRFLLSLLALTTLVGCNSKDDNTPTPAKPLSEQQQAYLPTKKVKRISCTYIDEGTTSNTNSPNSYLEAELYNQTYTLRTAEYLYEYDNMGRINKVTIKQERKPEDVRTFTYKDYSVIITAPYDTEVNGQYDIQAVEYGLNAAGNTLGFGMYNEKQQLKSVGDEIITWENDNITKIISKDDREGNKILETVLTYYNNENKNKFNVFSFDFSRESRSFMNYFEMPIALIIGASPKNLPKKVVIPSSRYNGEIENKIIELTYTFDNDGFVKNISENEYLRTGTSVGAYYQNSSYGDIDATTMSNTLQDLMTKIDNGTVTGKSYKIINNKQNERVIQFTIPIKVEKDSNGKPLNLIVDKICEYTFRYITENNQKKLSQIEMNITFKPHLVTHYELNY	not soluble
MAKSLLFITSFLKPRYNKPIMEKNWNVGTKYLNDKTRIIVVGITGREASQVVTESEALYPGFIKVGVTPGKGGTEVAGVPVFNTVKEALSSPEGKDVNTGLVYVPPASVKDAVIELIDAGIKLIYIVTEHVPIRDTVYFYHYAKERGVTIVGPTSLGCIVPRIPARIGAIGGKNPSIAYADGGLVILSKSGGLTTTTAEMFKRRGWGVYMALALGGDVISCTTFADVLEEIADDPNVKGVVIQGEVGGTYEEQAAETILRLYKEGRWNKPVAAFVAGKFQEKMEGVSFGHAGAIVERGKGKATDKIRMFNEVGKETGLVKVAEFYHDLVNCIEELGVPRDFEDSTPGGKVEPLYRTIDPETCEFKPQD	soluble
MKFPGQRKSKHYFPVHTRDPLVNQINQTPKLERTHLIGVGQTIVDIEAKVDDDFLNRHQLSKGHSLVLEESKAEALYKELFERNLISHEYPGDTIGNTLHNYSVLADSKSILLGVMSEDIKIGSYAYRYLCNTTSRMDLDYLQPVQGPIGRCYTLISEDGERTFAINEGDMNQLCPTHVPEHIFEKASALVISSYLVRGKEGDPMMDAVRKAIDCAKSHNVPVVLTLGTKYVIEGKAEWWQTFLKENVTVVAMNEEEAEALTGEKDPLLAADKALEWVDLVLCTAGPIGLYMAGFTEESIKRETSKPLLPGNIPEFNRFEYSRPMVKALCKKPIKVSSHIAPYMGGPVEIKNTNGAGDAALSALLHDMAANYYHKENVPNSSKHDAEYLTYSSFSQICKYSNRASYEVLTQHSPRLSKSMPEREDCLEEAYWER	not soluble
MSLEMTIAYIQENPYRLADEISGIGFKKADQIARAMGISLNSKYRIHSGIKYMLGTFHGEGHTYAPGDILIDRTRELLSVEESEVVEGIQELALKQKIQLERQDEEIIVYSMPYFYAETNTCNKLIELSQVELEPLEIDVDYEIESIEKEDGIALATNQKEAIRQSIENGIIVITGGPGTGKTTIINTLIKVFGKLKKKILLAAPTGRASKRMTEATGKEAKTIHRLLEMGYSDDDDGMLFQRNEENPLPADIIIIDEVSMVDIMLMNSLLKAISVGTRLIFVGDVDQLPSVGAGNVLRDIIDSKIIKVVRLNEIFRQAEESMIVVNAHKINKGEYPILNHKDKDFYFMSRSRSEDILNTIIGLVKERLPKHYKFDPIKDIQVLTPMKKGEVGSINLNKELQNYLNPPDKYKREKELREKVFRVGDKVMQIKNNYTLKWASLDPDTEERQGEGVFNGDMGYIQHINPEAQELTVFFDDNRSVVYTYTQLDELELAYAITIHKSQGSEFPVVVMPVTWGPPMLLTRNLLYTAITRARSLVVLVGTENYLNLMVSNNKIVERYSGLGIRLKKFYNEGHHHHHH	soluble
GSGRVSLNFKDPEAVRALTCTLLREDFGLSIDIPLERLIPTVPLRLNYIHWVEDLIGHQDSDKSTLRRGIDIGTGASCIYPLLGATLNGWYFLATEVDDMCFNYAKKNVEQNNLSDLIKVVKVPQKTLLMDALKEESEIIYDFCMCNPPFFANQLEAKGVNSRNPRRPPPSSVNTGGITEIMAEGGELEFVKRIIHDSLQLKKRLRWYSCMLGKKCSLAPLKEELRIQGVPKVTYTEFCQGRTMRWALAWSFYD	soluble
MITVSIVSHGQSTLVEQLLADLVRLDMSMVTEVLVTLNIPEDISSKPGDYPYPVRILRNTAARGFGANHNAAFRQAEGEWFCVMNPDIRLINNPFPILIEEGAYDSAGVIAPMVVTPSGMIEDSVRCFPVLTSLAAKLFGHGDGRYLFAAGDEAFAADWVAGMFMLFRTEDFRAVGGFDEGFFLYYEDVDICARLWKSGRSVLACPKASVIHDARRSSRRNLRYMKWHALSLIRYFWKHWGRLPQTPEQLEHHHHHH	soluble
MKIQLIAVGTKMPKWVEEGFQEYRRRFPHDMPLELVEITAGKRGKNADIARILQKEGEAMLAAVPKGNRIVTLDIPGKRWDTEELAVQLESWKLDGRDVSILIGGPEGLAPACKAAADQSWSLSPLTLPHPLVRVVMAESLYRAWSITTNHPYHRELEHHHHHH	soluble
MTNEEPVPSTSSVLSAAEKNVKIETPSRKRKGLDIDALWRKKFKDVENQKSPEKSEKSEKTIKEEPLETHPSGERKLRSASKDSKSLSKETHNTISTRSSSSGTPRKKMEPEDVKPNIKMLKKSLPVSFQCSNLNDGTVGDASVMLDPTKISLHSSSVAYGEESQDEMEVIQHSTDDPNGTREEFDYNQIEYGNAVTPNGTYTLYAPDSNYAPYYQYSNNMQSSPQDNAPYLVPAPQSPVSIDDADSINLPNNQRASPATVNWLFENYEIGEGSLPRCELYDHYKKHCAEHRMDPVNAASFGKLIRSVFHNLKTRRLGTRGNSKYHYYGIRLKDSSTLHSMQHPQPQIIQNTYTPPMQLPQRDAYADTVNQVAAIKYMDVEIPDKRARKDNSSSSSSCRDSVSPCMDLPAQQTIQHTPVHSVIPSTQQPAPLHNNNVVSYVVTESDKAAMGKIDLPIVPFPDKDALMATIGFRKLGVGEEELNSLIDIYEILCREILALIKNIDFASVEDTWSKFWSGNFGVDRDHISALCTLDQVQDYIIEVDLALYQTIVDTLIPNVLLSELSTGMTQTCRTFAKNIDVYLRKSLMLANLGEFFVKKKIQAIKYLQQGLKRYTSLNHLAHASRGVLMKPEQVQQMYQDYIRVDINTVHQQAGWICGCDSVMVHHVNNAFKHNLQRMSAMEVWAEWLESIVDQVLAKYHDKPANVIANVGKQFLLNWSFYTSMIIRDLTLRSAMSFGSFTLIRLLADDYMYYLIESKIAKAGKQQLITVIRADKDWPLTTNPQEYIVVANDNDEDLDLEKAGLL	not soluble
MGSDKIHHHHHHMAFFDLPLEELKKYRPERYEEKDFDEFWEETLAESEKFPLDPVFERMESHLKTVEAYDVTFSGYRGQRIKGWLLVPKLEEEKLPCVVQYIGYNGGRGFPHDWLFWPSMGYICFVMDTRGQGSGWLKGDTPDYPEGPVDPQYPGFMTRGILDPRTYYYRRVFTDAVRAVEAAASFPQVDQERIVIAGGSQGGGIALAVSALSKKAKALLCDVPFLCHFRRAVQLVDTHPYAEITNFLKTHRDKEEIVFRTLSYFDGVNFAARAKIPALFSVGLMDNICPPSTVFAAYNYYAGPKEIRIYPYNNHEGGGSFQAVEQVKFLKKLFEKG	soluble
MMDCRLGCGACCIAPSISSPIPGMPNGKPAGVRCVQLNEDNLCQLFGRPERPKVCHDFKACPVVCGKTNQQALANLTELERLTLEHHHHHH	not soluble
GADGVGNASGDWHCDSTWSEGHVTTTSTRTWVLPTYNNHLYKRLGESLQSNTYNGFSTPWGYFDFNRFHCHFSPRDWQRLINNNWGMRPKAMRVKIFNIQVKEVTTSNGETTVANNLTSTVQIFADSSYELPYVMDAGQEGSLPPFPNDVFMVPQYGYCGLVTGNTSQQQTDRNAFYCLEYFPSQMLRTGNNFEITYSFEKVPFHSMYAHSQSLDRLMNPLIDQYLWGLQSTTTGTTLNAGTATTNFTKLRPTNFSNFKKNWLPGPSIKQQGFSKTANQNYKIPATGSDSLIKYETHSTLDGRWSALTPGPPMATAGPADSKFSNSQLIFAGPKQNGNTATVPGTLIFTSEEELAATNATDTDMWGNLPGGDQSNSNLPTVDRLTALGAVPGMVWQNRDIYYQGPIWAKIPHTDGHFHPSPLIGGFGLKHPPPQIFIKNTPVPANPATTFSSTPVNSFITQYSTGQVSVQIDWEIQKERSKRWNPEVQFTSNYGQQNSLLWAPDAAGKYTEPRAIGTRYLTHHL	soluble
MAHHHHHHMDYAAAIKQQAEDLQDELKDLALWQEEVARQHEVNKMKKSATFVTNSVPPIRGTVPSLKEAVLKSAGVVEKEDPVKKQKDKGNELFQSGKLQEAVEAYAVGIDLDPEGPMAHVLYGNRALCYLKLERWSDAERDASSCVRLNRTYAKGYFRRATARKQLGNLKGARTDLEAVLALSPNDVSATNEMSLVTKMIRADRDGAEPVTRKKIVITEVDDDDDEQCVGEGAQDKTASPSVIESNTGRHPNTVGDQVVKNEIAELERFRAAQRDAQEARSRERETKLQYKGRTSSRVEIVEEINNESKEGVVVSSSPLSLNNGVTSASAQECPSRELAAVSTSGAAQRPATFKDKKMNEPVVPRMLKPTVKWTKDTLKAPKSFTEFERVFLDLKDDEELLCFYVSVIPPGSMQVLFGSNMTPDILLGMLKAAGRLSGTSTVSFLKGLCTVKRVRDISLFFDDCEKKVVEEVMDVVVSCGASDEDVSLFRRQLGVI	soluble
MAAWTPDLEAELSQLLKDWLKQQGRTQADLRRSLKAVSTRMPALLEVLEREHRLNGLSGLLARLCRVETEWHGGADHTSEAAEQSDPFGQLDLLLQEIRQDCPS	not soluble
MGSDKIHHHHHHMKKAHVIVVGNEKGGTGKSTISMHLIVSLLDKGLSVGSIDIDARQATLSRYIGNRAARQDRAELNLPIPEHIPIPPSGDAQADCARLDEVFKDFAARHDVVVIDTPGSDHPMSRLGHSFADTLVTPLNDSLVDLDVLALVEPGTMKIRRPSHYAEMVWETKKTRAMRGEKAVVDWIVLRNRLSNLDARNKRDMEKLLAELSKRVGFRVIPGLGERVIYRSMFLEGLTLVDLKKKPLGFDFNMSHVAARQELRTLVDAIGLGLPATA	not soluble
MAHHHHHHMNERTSGGAMSTIQFGGTMTTTLSQAKNMDFSNDSPRRRRNRHNVILFPNHRDRLACDPLNFFCVYATYEYRWSDTTLEAERNIFALVDSMVAAVRKAFDDAFERWKNMPAFVQHAHTLRSAVSFSSALSTNTLLHMYSHADNVARHTTLRKTLGSMLPSLPAANPRQEMNICSASSAGRSTFSKGALPRAAHRERREEEEEAVMKNLAKQWIPPHNGPKCRLVLDIVASRKTLGDDPVISDPYRLGQKVFSFTRRNYLREVINTFVGISDSGVTLVGRDILYPFRSTGGGSPKPSVKMNSLSGNRRNLSGSAISGLPIDSGDILGVAASGGVAAKVSGFEQILANTIPVPRMVPVPPTNTEKVDNIRLLVCFPPNDISGSVA	soluble
